Literature values, collected in publication PMC8281132.

Target: CD155 (Homo sapiens) (UniProt P15151)
Chain of UniProt P15151 (P15151 21-343): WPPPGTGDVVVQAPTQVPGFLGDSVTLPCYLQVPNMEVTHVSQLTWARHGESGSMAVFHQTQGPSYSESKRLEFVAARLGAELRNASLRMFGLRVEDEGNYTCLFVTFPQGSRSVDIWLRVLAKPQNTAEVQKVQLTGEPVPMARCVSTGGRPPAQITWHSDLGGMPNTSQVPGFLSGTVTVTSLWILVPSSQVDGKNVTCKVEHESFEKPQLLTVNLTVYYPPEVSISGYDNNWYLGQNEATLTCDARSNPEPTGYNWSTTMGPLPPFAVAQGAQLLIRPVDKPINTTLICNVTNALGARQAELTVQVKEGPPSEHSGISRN

## TIGIT (from UniProt Q495A1)
  Kd: 2 nM
